Broadly, the Kd is the equilibrium constant for the complex coming apart.

T1: tag-less unglycosylated CEACAM1 N-terminal domain (rCEACAM1-N, pET21d) (human, UniProt P13688 34-141)
T1 construct: N-terminal IgV-like domain of human CEACAM1; also called rCC1-N; CC1-N; source: E. coli, pET21d, purified as in Bonsor et al, 2015a
T1 sequence: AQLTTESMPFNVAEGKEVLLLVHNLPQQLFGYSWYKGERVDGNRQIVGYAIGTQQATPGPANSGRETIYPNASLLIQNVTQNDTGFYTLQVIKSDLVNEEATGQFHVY

B1: tag-less CEACAM1 N-terminal domain, unglycosylated (domain or fragment, human)
chain: T1 sequence
notes: CEACAM1, human, N-terminal IgV-like domain, tag-less; also called rCEACAM1-N; CC1-N; source: E. coli (pET21d), purified
B2: IgI3 domain of R28 protein, recombinant, as used in ITC (domain or fragment)
chain: KYSPEAKHRTVEQHAELDAKDSIANTDELPSNSTYNWKNGHKPDTSTSGEKDGIVEVHYPDGTVDDVNVKVTVTSKKTDNTAPTLTVTPEQQTVKVDEDITFTVTVEDENEVELGLDDLKAKYENDIIGARVKIKYLTKEPNKKVMEVTIMKATLADKGAITFTAKDKAGNQAEPKTVTINVLPLK
modifications: Construct limits not printed. 233-418 is the unannotated region between the AlphaC C-terminal domain (ends 232) and the first annotated Rib repeat (starts 419); it should enclose the IgI3 domain …
B3: β-IgI3 L45A (rβIgI3ΔL45A-His) (domain or fragment)
chain: ANENNQQKIELTVSPENITVYEGEDVKFTVTAKSDSKTTLDFSDALTKYNPSVSDRISTNYKTNTDNHKIAEITIKNLKLNESQTVTLKAKDDSGNVVEKTFTITVQKKEEKQ
notes: the substitution is still to be applied; its number counts on the domain's own 1-113; source: E. coli RG (Rosetta Gami), purified (Nickel column)
B4: β-IgI3 S52A (rβIgI3ΔS52A-His) (domain or fragment)
chain: B3 chain with A45L, S52A
notes: as for B3

Positions count from the first letter of the chain named. Names and notes keep the numbering of the source.

Assay [1] concerns the target IgSF (IgI3) domain of β protein, recombinant, as used in ITC (Streptococcus agalactiae (GBS)). Kind of assay: ITC; iTC200, 25°C, 30 mM Tris-HCl, 150 mM NaCl, pH 7.5; typically 500 µM unglycosylated CEACAM-N domain in the syringe, 50 µM IgI3 domain; duplicates.
The target in assay [2] is β-IgI3 D55A, as used in ITC (Streptococcus agalactiae (GBS)). The assay is described as above.
Assay [3] concerns the target β-IgI3 F42A, as used in ITC (Streptococcus agalactiae (GBS)). The description is as above.
For assay [4], the target named is β-IgI3 V53A, as used in ITC (Streptococcus agalactiae (GBS)). Described as above.
Assay [5] has as its target B2. The description is as above. As to conditions: both partners purified.
Assay [6] has as its target B1. Described as above. Conditions: both partners purified.
In assay [7] the target is T1, tag-less unglycosylated CEACAM1 …. Kind of assay: ITC; iTC200, 25 °C, 16 injections of 2.42 µL; typically 500 µM unglycosylated CEACAM-N in the syringe and 50 µM β-IgSF/β-IgI3; 30 mM Tris-HCl, 150 mM NaCl, pH 7.5; duplicates. As to conditions: both partners purified.

Regarding “tag-less CEACAM1-N L95A, unglycosylated (from UniProt P13688 34-141) (domain or fragment)”, the Kd in assay [1] was 1350 nM.
Still for that read-out and setting: next, “tag-less CEACAM1-N V96A, unglycosylated (from UniProt P13688 34-141) (domain or fragment)”: 370 nM; “tag-less CEACAM1-N Q44A, unglycosylated (from UniProt P13688 34-141) (domain or fragment)”: 996 nM; “CEACAM5 N-terminal domain, unglycosylated (domain or fragment)”: 152 nM.
Consider “tag-less CEACAM1 N-terminal domain, unglycosylated (from UniProt P13688 34-141) (domain or fragment)”, for which the Kd in assay [1] is 96 nM; in assay [2], 690 nM; in assay [3], 16 nM; in assay [4], 562 nM.
With “tag-less CEACAM1-N N97A, unglycosylated (from UniProt P13688 34-141) (domain or fragment)”, in assay [1], the Kd stood at 490 nM.
Consider B1, for which, in assay [5], the dH is -4.8 ± 0.3 kcal/mol.
In assay [6], B2 came in with an equilibrium dissociation constant (Kd) of 1050 ± 18 nM.
Turning to B3, binding in assay [7] was characterised by a dissociation constant (Kd) of 234 nM.
The same measure, in the same setting: to B4 belongs 85 nM.
